Reference: patent US20140087995A1 (published 2014)
Numbered stars: 1 amine (or outer) side, 2 acyl side, 3 side chain; on linkers, the order of the positions; unused ones are H or OH. Bridge positions count the residues as written; N and C are the ends. Side chains are listed from the residue outwards. Ends that are not written are not given here. * marks the point of attachment. C20 diacid = O=C(O)CCCCCCCCCCCCCCCCCCC(=O)*; γGlu = O=C(O)[C@H](CCC(=O)[*:2])N[*:1]

T1: rat calcitonin receptor (rat, UniProt P32214 25-516)
T1 construct: whole, on cells; Used as membranes prepared from BHK tk'ts 13 cells transiently transfected with the rat calcitonin receptor (Assay VIII); also called rCTR; rat calcitonin (a) receptor
T1 sequence (looked up): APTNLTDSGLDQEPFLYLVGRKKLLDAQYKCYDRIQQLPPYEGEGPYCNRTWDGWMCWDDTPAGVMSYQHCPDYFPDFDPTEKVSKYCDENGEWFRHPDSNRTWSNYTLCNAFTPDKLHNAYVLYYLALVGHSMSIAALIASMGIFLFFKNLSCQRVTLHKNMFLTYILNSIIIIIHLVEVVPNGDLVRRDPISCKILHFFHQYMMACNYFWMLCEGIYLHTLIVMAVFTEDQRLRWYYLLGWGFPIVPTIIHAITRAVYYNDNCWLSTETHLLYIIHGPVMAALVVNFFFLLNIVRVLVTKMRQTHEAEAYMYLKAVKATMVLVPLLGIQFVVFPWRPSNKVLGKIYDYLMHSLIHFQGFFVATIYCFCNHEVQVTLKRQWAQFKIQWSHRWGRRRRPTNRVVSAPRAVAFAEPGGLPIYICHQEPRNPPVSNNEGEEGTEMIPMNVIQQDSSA

T2: human calcitonin receptor (human, UniProt P30988 25-474)
T2 construct: whole, on cells; Used as membranes prepared from a BHK tk'ts 13 cell line stably transfected with the human calcitonin receptor (Assay VII); also called hCTR; hCT
T2 sequence (looked up): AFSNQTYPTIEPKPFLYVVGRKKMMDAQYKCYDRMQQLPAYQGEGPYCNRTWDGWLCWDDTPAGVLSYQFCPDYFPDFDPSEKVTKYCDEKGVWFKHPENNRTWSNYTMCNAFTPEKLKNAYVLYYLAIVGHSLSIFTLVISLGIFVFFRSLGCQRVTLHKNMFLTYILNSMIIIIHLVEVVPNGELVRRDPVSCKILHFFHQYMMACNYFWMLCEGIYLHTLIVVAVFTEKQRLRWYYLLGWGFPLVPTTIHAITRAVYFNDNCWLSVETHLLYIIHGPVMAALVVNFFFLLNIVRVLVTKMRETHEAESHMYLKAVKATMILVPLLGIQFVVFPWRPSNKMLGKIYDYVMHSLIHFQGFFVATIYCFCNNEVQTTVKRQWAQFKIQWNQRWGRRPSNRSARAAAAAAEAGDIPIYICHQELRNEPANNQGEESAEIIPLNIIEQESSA

T3: rat amylin receptor (rat calcitonin receptor + rat RAMP 3) (rat, UniProt P32214 25-516; Q9JJ73 23-147)
T3 construct: whole, on cells; Used as membranes prepared from BHK tk'ts 13 cells transiently transfected with rat calcitonin receptor and rat RAMP 3 (Assay VI); also called rAmylin-R; rat amylin 3(a) receptor
T3 sequence (looked up) 1: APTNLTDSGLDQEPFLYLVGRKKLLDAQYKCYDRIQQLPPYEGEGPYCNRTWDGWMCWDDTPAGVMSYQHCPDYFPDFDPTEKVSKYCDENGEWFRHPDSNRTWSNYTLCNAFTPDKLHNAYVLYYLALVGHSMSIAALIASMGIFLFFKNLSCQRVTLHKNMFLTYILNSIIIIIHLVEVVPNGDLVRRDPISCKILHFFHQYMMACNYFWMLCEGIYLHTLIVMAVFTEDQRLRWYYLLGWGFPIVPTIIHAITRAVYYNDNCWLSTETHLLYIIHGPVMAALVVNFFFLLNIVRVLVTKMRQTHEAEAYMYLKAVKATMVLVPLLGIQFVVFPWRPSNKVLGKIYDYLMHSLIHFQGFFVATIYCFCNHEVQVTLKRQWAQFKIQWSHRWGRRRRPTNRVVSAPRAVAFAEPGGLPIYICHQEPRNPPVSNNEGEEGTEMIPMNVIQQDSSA
T3 sequence (looked up) 2: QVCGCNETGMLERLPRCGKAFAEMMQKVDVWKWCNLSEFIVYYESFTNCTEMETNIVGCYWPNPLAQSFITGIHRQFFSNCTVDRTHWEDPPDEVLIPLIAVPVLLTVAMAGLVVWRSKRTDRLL


Columns and labels:
[1] = biological target: T1, rat calcitonin receptor; test: IC50 on rat CTR divided by IC50 on rat amylin receptor (Assays VIII/VI)
[2] = biological target: T1, rat calcitonin receptor; test: SPA competition with 125I-calcitonin, membranes of BHK cells with rat CTR (Assay VIII)
[3] = biological target: T2, human calcitonin receptor; test: IC50 on human CTR divided by IC50 on human amylin receptor (Assays VII/V)
In short: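 IC₅₀ values were derived by one-site competition analysis of SPA counts. Cell membranes (35 ng/μL) with SPA beads were incubated with test compounds for 120 min at 25° C in Hepes buffer, pH 7.4, containing CaCl2, MgCl₂, OA and Tween20.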

[4] = biological target: T3, rat amylin receptor (rat calcitonin …); test: SPA competition with 125I-rat amylin, membranes of BHK cells with rat CTR + rat RAMP3 (Assay VI)

Row | Ratio rCT/rAmylin binding [1] | IC50 [2] | Ratio hCT/hAmylin binding [3] | IC50 [4] | Binder
1 | 35.6 | 124 nM | 157 | 3.48 nM | K([γGlu-C20 diacid])CNTATCATQRLARFLRHSSPNFGAIPSSTPVGSNTY-NH2 (disulfide 2-7; N-terminus assumed; SMILES CC[C@H](C)[C@H](NC(=O)[C@H](C)NC(=O)CNC(=O)[C@H](Cc1ccccc1)NC(=O)[C@H](CC(N)=O)NC(=O)[C@@H]1CCCN1C(=O)[C@H](CO)NC(=O)[C@H](CO)NC(=O)[C@H](Cc1c[nH]cn1)NC(=O)[C@H](CCCNC(=N)N)NC(=O)[C@H](CC(C)C)NC(=O)[C@H](Cc1ccccc1)NC(=O)[C@H](CCCNC(=N)N)NC(=O)[C@H](C)NC(=O)[C@H](CC(C)C)NC(=O)[C@H](CCCNC(=N)N)NC(=O)[C@H](CCC(N)=O)NC(=O)[C@@H](NC(=O)[C@H](C)NC(=O)[C@@H]1CSSC[C@H](NC(=O)[C@@H](N)CCCCNC(=O)CC[C@H](NC(=O)CCCCCCCCCCCCCCCCCCC(=O)O)C(=O)O)C(=O)N[C@@H](CC(N)=O)C(=O)N[C@@H]([C@@H](C)O)C(=O)N[C@@H](C)C(=O)N[C@@H]([C@@H](C)O)C(=O)N1)[C@@H](C)O)C(=O)N1CCC[C@H]1C(=O)N[C@@H](CO)C(=O)N[C@@H](CO)C(=O)N[C@H](C(=O)N1CCC[C@H]1C(=O)N[C@H](C(=O)NCC(=O)N[C@@H](CO)C(=O)N[C@@H](CC(N)=O)C(=O)N[C@H](C(=O)N[C@@H](Cc1ccc(O)cc1)C(N)=O)[C@@H](C)O)C(C)C)[C@@H](C)O, Analogue of human amylin; also called compound 63)
2 | 93.2 | 108 nM | 82.4 | 1.16 nM | K([γGlu-C20 diacid])CNTATCATQRLARFLRHSSPNFGAIPSSTNVGPNTY-NH2 (disulfide 2-7; N-terminus assumed; SMILES CC[C@H](C)[C@H](NC(=O)[C@H](C)NC(=O)CNC(=O)[C@H](Cc1ccccc1)NC(=O)[C@H](CC(N)=O)NC(=O)[C@@H]1CCCN1C(=O)[C@H](CO)NC(=O)[C@H](CO)NC(=O)[C@H](Cc1c[nH]cn1)NC(=O)[C@H](CCCNC(=N)N)NC(=O)[C@H](CC(C)C)NC(=O)[C@H](Cc1ccccc1)NC(=O)[C@H](CCCNC(=N)N)NC(=O)[C@H](C)NC(=O)[C@H](CC(C)C)NC(=O)[C@H](CCCNC(=N)N)NC(=O)[C@H](CCC(N)=O)NC(=O)[C@@H](NC(=O)[C@H](C)NC(=O)[C@@H]1CSSC[C@H](NC(=O)[C@@H](N)CCCCNC(=O)CC[C@H](NC(=O)CCCCCCCCCCCCCCCCCCC(=O)O)C(=O)O)C(=O)N[C@@H](CC(N)=O)C(=O)N[C@@H]([C@@H](C)O)C(=O)N[C@@H](C)C(=O)N[C@@H]([C@@H](C)O)C(=O)N1)[C@@H](C)O)C(=O)N1CCC[C@H]1C(=O)N[C@@H](CO)C(=O)N[C@@H](CO)C(=O)N[C@H](C(=O)N[C@@H](CC(N)=O)C(=O)N[C@H](C(=O)NCC(=O)N1CCC[C@H]1C(=O)N[C@@H](CC(N)=O)C(=O)N[C@H](C(=O)N[C@@H](Cc1ccc(O)cc1)C(N)=O)[C@@H](C)O)C(C)C)[C@@H](C)O, Analogue of human amylin; also called compound 65)
